In patent publication US20040214256:

T1: Compound 1s, Ac-Ile-Ile-PyA-pNF-Asn-Thr-Pro-Glu-His-Val-Val-Pro-Tyr-Gly-Leu-Gly-Ser-COOH
T1 sequence: IIXXNTPEHVVPYGLGS

T2: Compound 2s, Ac-Arg-Pro-Lys-Pro-Gln-Gln-PyA-pNF-Gly-Leu-Met-NH2
T2 sequence: RPKPQQXXGLM

T3: peptide 3s, Ac-Ser-Gly-PyA-Lys-Ala-Phe-Ala-pNF-Gly-Lys NH2
T3 sequence: SGXKAFAXGK

T4: Compound 1s, Ac-Ile-Ile-PyA-pNF-Asn-Thr-Pro-Glu-His-Val-Val-Pro-Tyr-Gly-Leu-Gly-Ser-COOH
T4 chain: IIXXNTPEHVVPYGLGS

T5: peptide 3s, Ac-Ser-Gly-PyA-Lys-Ala-Phe-Ala-pNF-Gly-Lys NH2
T5 chain: SGXKAFAXGK


Tests used:
[1] = test system: T1, Compound 1s, Ac-Ile-Ile-PyA-pNF-Asn-Thr-Pro-Glu-His-Val-Val-Pro-Tyr-Gly-Leu-Gly-Ser-COOH
[2] = test system: T2, Compound 2s, Ac-Arg-Pro-Lys-Pro-Gln-Gln-PyA-pNF-Gly-Leu-Met-NH2
[3] = test system: T3, peptide 3s, Ac-Ser-Gly-PyA-Lys-Ala-Phe-Ala-pNF-Gly-Lys NH2
[4] = target: T4, Compound 1s, …
[5] = target: T5, peptide 3s, …

| Molecule | cleavage by HPLC after 2 h at 37° C. [1] | cleavage by HPLC after 2 h at 37° C. [2] | cleavage by HPLC after 2 h at 37° C. [3] | Km (fluorimetric cleavage assay, ENZFITTER) [4] | cleavage products by HPLC [4] | cleavage products by HPLC [5] |
| --- | --- | --- | --- | --- | --- | --- |
| angiotensin-converting enzyme (ACE) | no cleavage is observed by HPLC after incubation for 2 h at 37 °C | no cleavage is observed by HPLC after incubation for 2 h at 37 °C | no cleavage is observed by HPLC after incubation for 2 h at 37 °C | – | – | – |
| neprilysin (NEP) | no cleavage is observed by HPLC after incubation for 2 h at 37 °C | no cleavage is observed by HPLC after incubation for 2 h at 37 °C | no cleavage is observed by HPLC after incubation for 2 h at 37 °C | – | – | – |
| endothelin-converting enzyme (ECE) (protein) MMSTYKRATLDEEDLVDSLSEGDAYPNGLQVNFHSPRSGQRCWAARTQVEKRLVVLVVLLAAGLVACLAALGIQYQTRSPSVCLSEACVSVTSSILSSMDPTVDPCHDFFSYACGGWIKANPVPDGHSRWGTFSNLWEHNQAIIKHLLENSTASVSEAERKAQVYYRACMNETRIEELRAKPLMELIERLGGWNITGPWAKDNFQDTLQVVTAHYRTSPFFSVYVSADSKNSNSNVIQVDQSGLGLPSRDYYLNKTENEKVLTGYLNYMVQLGKLLGGGDEEAIRPQMQQILDFETALANITIPQEKRRDEELIYHKVTAAELQTLAPAINWLPFLNTIFYPVEINESEPIVVYDKEYLEQISTLINTTDRCLLNNYMIWNLVRKTSSFLDQRFQDADEKFMEVMYGTKKTCLPRWKFCVSDTENNLGFALGPMFVKATFAEDSKSIATEIILEIKKAFEESLSTLKWMDEETRKSAKEKADAIYNMIGYPNFIMDPKELDKVFNDYTAVPDLYFENAMRFFNFSWRVTADQLRKAPNRDQWSMTPPMVNAYYSPTKNEIVFPAGILQAPFYTRSSPKALNFGGIGVVVGHELTHAFDDQGREYDKDGNLRPWWKNSSVEAFKRQTECMVEQYSNYSVNGEPVNGRHTLGENIADNGGLKAAYRAYQNWVKKNGAEHSLPTLGLTNNQLFFLGFAQVWCSVRTPESSHEGLITDPHSPSRFRVIGSLSNSKEFSEHFRCPPGSPMNPPHKCEVW | – | – | – | 1s, Km=22.1±0.9 µM | In all cases, a single cleavage site at the L.PyA-Lp.NF dipeptide was observed, generating only two metabolites | produce only two metabolites, as shown by analysis of the reaction by HPLC, corresponding to the single cleavage at the PyA-pNF peptide bond |
